Where “and” joins values, the source holds several entries; their conditions need not be identical. Identical values can stand only once.
Target: F-actin (filamentous actin from rabbit muscle) (rabbit, UniProt P68135 1-377)
Assay: co-sedimentation

B1: 90 kDa isoform of palladin (natural protein)
chain: MSALASRSAPAMQSSGSFNYARPKQFIAAQNLGPASGHGTPASSPSSSSLPSPMSPTPRQFGRAPVPPFAQPFGAEPEAPWGSSSPSPPPPPPPVFSPTAAFPVPDVFPLPPPPPPLPSPGQASHCSSPATRFGHSQTPAAFLSALLPSQPPPAAVNALGLPKGVTPAGFPKKASRTARIASDEEIQGTKDAVIQDLERKLRFKEDLLNNGQPRLTYEERMARRLLGADSATVFNIQEPEEETANQEYKVSSCEQRLISEIEYRLERSPVDESGDEVQYGDVPVENGMAPFFEMKLKHYKIFEGMPVTFTCRVAGNPKPKIYWFKDGKQISPKSDHYTIQRDLDGTCSLHTTASTLDDDGNYTIMAANPQGRISCTGRLMVQAVNQRGRSPRSPSGHPHVRRPRSRSRDSGDENEPIQERFFRPHFLQAPGDLTVQEGKLCRMDCKVSGLPTPDLSWQLDGKPVRPDSAHKMLVRENGVHSLIIEPVTSRDAGIYTCIATNRAGQNSFSLELVVAAKEAHKPPVFIEKLQNTGVADGYPVRLECRVLGVPPPQIFWKKENESLTHSTDRVSMHQDNHGYICLLIQGATKEDAGWYTVSAKNEAGIVSCTARLDVYTQWHQQSQSTKPKKVRPSASRYAALSDQGLDIKAAFQPEANPSHLTLNTALVESEDL
  Kd: 2110 nM and 3100 nM
